Biological target: sLRP1-CIV (cluster IV of LRP1 fused to the constant region of a human IgG1) (human)
Assay: SPR (Biacore X), sLRP1-CIV immobilised on CM5 chip, peptide at 20 µM; RU observed at 160 s

Binder	RU (at 160 s) [RU]
SSNIVIGIGDKALKINWSKKK (modifications not checked) [peptide HDIII3CLC-]	38.2
CSNIVIGIGDKALKINACKKK (modifications not checked) [peptide HDIII3CLW-]	192
